What was measured:
[1] = tested on: OIR rats; experiment: Retinal NV by fluorescein angiography in OIR rats; format: in vivo, rat; settings: 3 μl of 1 μg/μl intravitreal at P15, fluorescein angiography at P18, vs BSA
Experimental: To determine the anti-angiogenic effect of DKK1 on retinal NV, DKK1 was injected (3 μl of 1 μg/μl DKK1) into the vitreous of the OIR rats at P15. At the time, NV had partially formed in the OIR rats at P15. The rats were then maintained in normoxia for 3 days, and then the retinal NV was examined using fluorescein angiography on retinal whole mounts at P18.
According to embodiments of experimental data and as shown in FIGS. 19A-19D, the OIR model was generated by exposure of BN rats to 75% oxygen for 5 days (P7-P12). At age of P15, OIR BN rats received a single intravitreal injection of DKK1 into the right eye and the same amount of BSA into the left eye. At P18, retinal vasculature was visualized using fluorescein angiography on the whole-mounted retinas from the left eye injected with BSA (FIGS. 19A and 19B) and the right eyes injected with DKK1 (FIGS. 19C and 19D) by angiography at P18.
Fluorescein Angiography: Angiograms were performed using intracardiac injection of 10 mg/ml fluorescein isothiocyanate-conjugated high molecular weight dextran (Sigma, FD-2000S) in deeply anesthetized mice. Eyes were dissected and fixed with 4% paraformaldehyde in Hanks' balanced saline prepared immediately before use for overnight at 4° C., and retinas were flat-mounted in Fluoromount-G.

[2] = tested on: STZ-diabetic rats; experiment: Retinal ICAM-1 (sICAM-1 ELISA) after intravitreal DKK1 in STZ-diabetic rats; format: in vivo, rat; settings: different doses intravitreal, STZ-diabetic rats 16 weeks after onset, 2 days after injection, vs BSA
Experimental: To determine the role of wnt pathway in retinal inflammation in diabetic retinopathy, different doses of purified DKK1, a specific inhibitor of the wnt pathway, was injected into the vitreous of the right eye of STZ-diabetic rats. As shown by ELISA, diabetes induced over-expression of ICAM-1 in the retina.
According to embodiments of experimental data shown in FIG. 13, different doses of purified DKK1 were injected intravitrealy into the right eye of STZ-diabetic rats at 16 weeks following the onset of diabetes, and the same amounts of BSA into the left eye for control. Soluble ICAM-1 was measured at 2 days after the injection using the sICAM-1 ELISA kit, normalized by total protein concentrations and expressed as ng.
(§1) Intravitreal injection: All solutions will be sterilized by filtration and assessed for endotoxin. Animals will be anesthetized, and compounds will be injected into the vitreous of the one eye through the pars plana using a Hamilton syringe. The left eye will receive the same volume of vehicle and will be used as the control. Following injection, the animals will receive equal amounts of topical antibiotic ointment on both eyes. The animals will then be kept in normoxic conditions until the necessary time point for evaluation

[3] = tested on: STZ-diabetic BN rats; experiment: Retinal vascular permeability in STZ-induced diabetic rats; format: in vivo, rat; settings: STZ-diabetic BN rats 16 weeks, 3 μg/eye intravitreal, 48 h, vs BSA contralateral eye, P<0.05
Experimental: To investigate if blockade of the wnt pathway reduces the retinal vascular hyper-permeability in diabetes, 3 μg purified DKK1 was intravitreally injected into the right eyes of STZ-diabetic BN rats at 16 weeks following the STZ injection, and the same amount of BSA into the contralateral eyes as control. The vascular permeability was measured at 48 h following the DKK1 injection.
The retinal vascular permeability was measured using Evans blue as a tracer, 48 hr after the injection. Vascular permeability was expressed as % of the permeability in the contralateral control (mean±SD, n=4), P<0.05.
Measurement of vascular permeability: Vascular permeability will be quantified by measuring FITC-BSA leakage from blood vessels into the retina following a method with modifications. The mice anesthetized and FITC-BSA (10 mg/kg body weight) is injected through the femoral vein under microscopic inspection. […] The fluoresce density of fluorescein-albumin from supernatant and serum is measured at excitation wave 485 nm/emission wave 530 nm. Retinal protein levels are measured in the pellet by Bradford assays with quantification at […]. The FITC-BSA levels in the retina are then calculated by the supernatant fluoresce density and normalized to retinal protein levels and normalized to serum FITC levels.

[4] = tested on: OIR rats; experiment: Retinal VEGF (western blot) after intravitreal DKK1 in OIR rats; format: in vivo, rat; settings: 3 μg/eye intravitreal at P15, retinas at P18, western blot, vs BSA
Experimental: To determine the effect of the wnt pathway blockade of the VEGF expression induced by ischemia, DKK1 was injected into the vitreous of the OIR rats at P15. The rats were then maintained in normoxia for 3 days, and the VEGF expression in the retina was measured.
The same amount of BSA was injected as control. The same amount of total protein from each rat was used for western blot analysis using specific antibody for VEGF. Each lane represents an individual rat.
as §1

[5] = tested on: bovine retinal capillary endothelial cells (BRCEC); experiment: Intracellular ROS generation assay in BRCEC; format: cell-based; settings: DKK1 6.25-100 nM, 2 h, CM-H2DCFDA
Experimental: A primary culture of bovine retinal capillary endothelial cells (BRCEC) were exposed to 30 mM glucose or TNF-α in the absence or presence of various concentrations of DKK1 (6.25-100 nM) for 2 h. Aminoguanidine was used as a positive control as it is a known inhibitor of ROS generation.
According to embodiments of experimental data shown in FIG. 14, BRCEC were exposed to 30 mM glucose or 1 μg/ml TNF-α in the absence or presence of various concentrations of DKK1 (6.25-100 nM) for 2 h, 10 μM aminoguanidine (AG) was used as positive control. Intracellular ROS generation was measured using CM-H2DCFDA, and expressed as fluorescent unit per well (means±SD, n=3).

B1: DKK1: Purified Dickkopf-1 protein (R&D System), specific inhibitor of the wnt pathway binding LRP5/6; mouse protein in mice, human in HUVEC (protein, UniProt O54908 32-272; O54908 32-272, looked up)
Dickkopf-related protein 1 1: TLNSVLINSNAIKNLPPPLGGAGGQPGSAVSVAPGVLYEGGNKYQTLDNYQPYPCAEDEECGSDEYCSSPSRGAAGVGGVQICLACRKRRKRCMRHAMCCPGNYCKNGICMPSDHSHFPRGEIEESIIENLGNDHNAAAGDGYPRRTTLTSKIYHTKGQEGSVCLRSSDCAAGLCCARHFWSKICKPVLKEGQVCTKHKRKGSHGLEIFQRCYCGEGLACRIQKDHHQASNSSRLHTCQRH
Dickkopf-related protein 1 2: TLNSVLINSNAIKNLPPPLGGAGGQPGSAVSVAPGVLYEGGNKYQTLDNYQPYPCAEDEECGSDEYCSSPSRGAAGVGGVQICLACRKRRKRCMRHAMCCPGNYCKNGICMPSDHSHFPRGEIEESIIENLGNDHNAAAGDGYPRRTTLTSKIYHTKGQEGSVCLRSSDCAAGLCCARHFWSKICKPVLKEGQVCTKHKRKGSHGLEIFQRCYCGEGLACRIQKDHHQASNSSRLHTCQRH
modifications: mouse protein in mice, human in HUVEC
With B1 the “retinal NV areas” value [1] was “decreased retinal NV areas”, the “ICAM-1 over-expression in the retina” value [2] was “inhibited the ICAM-1 over-expression in a dose-dependent manner” and the retinal vascular permeability [3] was “significantly reduced retinal vascular permeability”. For the same molecule, the “VEGF over-expression in the retina” value [4] was “significantly blocked VEGF over-expression”, the “ROS generation induced by TNF-α” value ([5]; 1 μg/ml TNF-α) was “blocked the ROS generation” and the “ROS generation induced by high glucose” value ([5]; 30 mM glucose) was “blocked the ROS generation”.
